B1: Defensin-6 (Homo sapiens), Q01524 (parent)
chain: MRTLTILTAVLLVALQAKAEPLQAEDDPLQAKAYEADAQEQRGANDQDFAVSFAEDASSSLRALGSTRAFTCHCRRSCYSTEYSYGTCTVMGINHRFCCL
B2: DCC-interacting protein 13-alpha (Homo sapiens), Q9UKG1 (parent)
chain: MPGIDKLPIEETLEDSPQTRSLLGVFEEDATAISNYMNQLYQAMHRIYDAQNELSAATHLTSKLLKEYEKQRFPLGGDDEVMSSTLQQFSKVIDELSSCHAVLSTQLADAMMFPITQFKERDLKEILTLKEVFQIASNDHDAAINRYSRLSKKRENDKVKYEVTEDVYTSRKKQHQTMMHYFCALNTLQYKKKIALLEPLLGYMQAQISFFKMGSENLNEQLEEFLANIGTSVQNVRREMDSDIETMQQTIEDLEVASDPLYVPDPDPTKFPVNRNLTRKAGYLNARNKTGLVSSTWDRQFYFTQGGNLMSQARGDVAGGLAMDIDNCSVMAVDCEDRRYCFQITSFDGKKSSILQAESKKDHEEWICTINNISKQIYLSENPEETAARVNQSALEAVTPSPSFQQRHESLRPAAGQSRPPTARTSSSGSLGSESTNLAALSLDSLVAPDTPIQFDIISPVCEDQPGQAKAFGQGGRRTNPFGESGGSTKSETEDSILHQLFIVRFLGSMEVKSDDHPDVVYETMRQILAARAIHNIFRMTESHLLVTCDCLKLIDPQTQVTRLTFPLPCVVLYATHQENKRLFGFVLRTSSGRSESNLSSVCYIFESNNEGEKICDSVGLAKQIALHAELDRRASEKQKEIERVKEKQQKELNKQKQIEKDLEEQSRLIAASSRPNQASSEGQFVVLSSSQSEESDLGEGGKKRESEA
partner: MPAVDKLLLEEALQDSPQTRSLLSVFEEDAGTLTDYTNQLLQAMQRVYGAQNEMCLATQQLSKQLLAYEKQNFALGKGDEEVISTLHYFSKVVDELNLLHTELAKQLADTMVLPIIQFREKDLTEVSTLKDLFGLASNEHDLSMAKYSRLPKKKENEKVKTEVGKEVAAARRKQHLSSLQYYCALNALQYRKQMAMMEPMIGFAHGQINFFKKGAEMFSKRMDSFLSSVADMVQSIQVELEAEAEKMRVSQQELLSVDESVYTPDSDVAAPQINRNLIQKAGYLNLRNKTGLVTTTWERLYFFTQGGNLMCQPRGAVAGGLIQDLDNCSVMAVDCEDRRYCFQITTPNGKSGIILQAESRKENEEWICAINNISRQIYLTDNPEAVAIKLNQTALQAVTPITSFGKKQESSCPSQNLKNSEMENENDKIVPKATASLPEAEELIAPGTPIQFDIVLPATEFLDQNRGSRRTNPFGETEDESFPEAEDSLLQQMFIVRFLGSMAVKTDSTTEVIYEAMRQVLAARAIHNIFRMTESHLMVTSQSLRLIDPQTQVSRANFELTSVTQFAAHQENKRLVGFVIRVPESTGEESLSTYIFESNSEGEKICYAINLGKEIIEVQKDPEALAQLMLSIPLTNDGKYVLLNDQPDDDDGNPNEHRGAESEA
B3: E3 ubiquitin-protein ligase DZIP3 (Homo sapiens), Q86Y13 (parent)
chain: MDSLPDEFFVRHPAVEDQRKEETENKLEKSSGQLNKQENDIPTDLVPVNLLLEVKKLLNAINTLPKGVVPHIKKFLQEDFSFQTMQREVAANSQNGEEIVPALTLRFLITQLEAALRNIQAGNYTAHQINIGYYLTLLFLYGVALTERGKKEDYTEAENKFLVMKMMIQENEICENFMSLVYFGRGLLRCAQKRYNGGLLEFHKSLQEIGDKNDHWFDIDPTEDEDLPTTFKDLLNNFIKTTESNIMKQTICSYLDCERSCEADILKNTSYKGFFQLMCSKSCCVYFHKICWKKFKNLKYPGENDQSFSGKKCLKEGCTGDMVRMLQCDVPGIVKILFEVVRKDEYITIENLGASYRKLISLKITDTDIRPKISLKFNTKDEMPIFKLDYNYFYHLLHIIIISGTDIVRQIFDEAMPPPLLKKELLIHKNVLESYYNHLWTNHPLGGSWHLLYPPNKELPQSKQFDLCLLLALIKHLNVFPAPKKGWNMEPPSSDISKSADILRLCKYRDILLSEILMNGLTESQFNSIWKKVSDILLRLGMMQEDIDKVKENPIENISLDYHQLSVYLGIPVPEIIQRMLSCYQQGIALQSITGSQRIEIEELQNEEEELSPPLMEYNINVKSHPEIQFAEINKDGTSIPSESSTESLKDLQEVKSKQRKKKKTKNKKNKDSKEDQVPYVVEKEEQLRKEQANPHSVSRLIKDDASDVQEDSAMEDKFYSLDELHILDMIEQGSAGKVTTDYGETEKERLARQRQLYKLHYQCEDFKRQLRTVTFRWQENQMQIKKKDKIIASLNQQVAFGINKVSKLQRQIHAKDNEIKNLKEQLSMKRSQWEMEKHNLESTMKTYVSKLNAETSRALTAEVYFLQCRRDFGLLHLEQTEKECLNQLARVTHMAASNLESLQLKAAVDSWNAIVADVRNKIAFLRTQYNEQINKVKQGFALSTLPPVQLPPPPPSPEILMQQFLGRPLVKESFFRPILTVPQMPAVCPGVVSATGQPRAPLMTGIAWALPAPVGDAVPPSAGLRSDPSIMNWERITDRLKTAFPQQTRKELTDFLRKLKDAYGKSLSELTFDEIVCKISQFIDPKKSQSQGKSVSNVNCVSPSHSPSQPDAAQPPKPAWRPLTSQGPATWEGASNPDEEEEEEEPCVICHENLSPENLSVLPCAHKFHAQCIRPWLMQQGTCPTCRLHVLLPEEFPGHPSRQLPKI
B4: Keratin-associated protein 12-2 (Homo sapiens), P59991 (parent)
chain: MCHTSCSSGCQPACCAPSPCQPACCVPSSCQASCCVPVGCQSSVCVPVSFKPAVCLPVSCQSSVCVPMSFKSAVCVPVSCQSSVCVPVSCRPIVCAAPSCQSSLCVPVSCRPVVYAAPSCQSSGCCQPSCTSVLCRPISYSISSCC
partner: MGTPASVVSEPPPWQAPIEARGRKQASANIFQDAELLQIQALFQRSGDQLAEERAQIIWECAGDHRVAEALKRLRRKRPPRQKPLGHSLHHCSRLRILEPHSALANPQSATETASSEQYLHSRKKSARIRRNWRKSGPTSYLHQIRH
B5: Protein LDOC1 (Homo sapiens), O95751 (parent)
chain: MVDELVLLLHALLMRHRALSIENSQLMEQLRLLVCERASLLRQVRPPSCPVPFPETFNGESSRLPEFIVQTASYMLVNENRFCNDAMKVAFLISLLTGEAEEWVVPYIEMDSPILGDYRAFLDEMKQCFGWDDDEDDDDEEEEDDY
partner: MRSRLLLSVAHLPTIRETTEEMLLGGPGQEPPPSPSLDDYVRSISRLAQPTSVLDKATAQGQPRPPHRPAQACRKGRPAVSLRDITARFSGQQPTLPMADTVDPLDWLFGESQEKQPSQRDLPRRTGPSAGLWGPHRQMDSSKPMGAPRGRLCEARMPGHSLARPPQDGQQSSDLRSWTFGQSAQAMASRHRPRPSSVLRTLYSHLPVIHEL
B6: Germ cell-less protein-like 1 (Homo sapiens), Q96IK5 (parent)
chain: MGSLSSRVLRQPRPALAQQAQGARAGGSARRPDTGDDAAGHGFCYCAGSHKRKRSSGSFCYCHPDSETDEDEEEGDEQQRLLNTPRRKKLKSTSKYIYQTLFLNGENSDIKICALGEEWSLHKIYLCQSGYFSSMFSGSWKESSMNIIELEIPDQNIDVEALQVAFGSLYRDDVLIKPSRVVAILAAACLLQLDGLIQQCGETMKETVNVKTVCGYYTSAGTYGLDSVKKKCLEWLLNNLMTHQNVELFKELSINVMKQLIGSSNLFVMQVEMDIYTALKKWMFLQLVPSWNGSLKQLLTETDVWFSKQRKDFEGMAFLETEQGKPFVSVFRHLRLQYIISDLASARIIEQDAVVPSEWLSSVYKQQWFAMLRAEQDSEVGPQEINKEELEGNSMRCGRKLAKDGEYCWRWTGFNFGFDLLVTYTNRYIIFKRNTLNQPCSGSVSLQPRRSIAFRLRLASFDSSGKLICSRTTGYQILTLEKDQEQVVMNLDSRLLIFPLYICCNFLYISPEKKN
partner: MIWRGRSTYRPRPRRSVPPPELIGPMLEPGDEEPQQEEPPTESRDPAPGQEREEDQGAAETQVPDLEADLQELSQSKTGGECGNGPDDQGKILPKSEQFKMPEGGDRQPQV

Variants of: B1
Details: with ubql1_human UBQLN1, Q9UMX0
Sequence of ubql1_human UBQLN1, Q9UMX0 (Q9UMX0 whole entry): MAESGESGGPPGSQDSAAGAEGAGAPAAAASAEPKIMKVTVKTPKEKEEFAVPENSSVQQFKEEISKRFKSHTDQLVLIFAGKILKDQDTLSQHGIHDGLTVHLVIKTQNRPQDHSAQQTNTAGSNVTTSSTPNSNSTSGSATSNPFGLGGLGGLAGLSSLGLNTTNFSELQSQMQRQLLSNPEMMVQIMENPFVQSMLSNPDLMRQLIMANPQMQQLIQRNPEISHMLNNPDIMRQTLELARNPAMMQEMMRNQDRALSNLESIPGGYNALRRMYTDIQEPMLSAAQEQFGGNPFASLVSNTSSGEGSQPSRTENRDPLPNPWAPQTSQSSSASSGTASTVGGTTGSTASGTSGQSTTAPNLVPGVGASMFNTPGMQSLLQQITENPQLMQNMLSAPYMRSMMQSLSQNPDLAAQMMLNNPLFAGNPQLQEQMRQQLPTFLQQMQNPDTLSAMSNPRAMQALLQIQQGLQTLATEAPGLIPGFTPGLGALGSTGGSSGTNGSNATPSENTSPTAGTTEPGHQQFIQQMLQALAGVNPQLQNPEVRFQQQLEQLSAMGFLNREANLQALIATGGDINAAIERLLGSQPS

| effect of a mutation on the interaction | Variant |
| --- | --- |
| with no effect | E35D |

Variants of: B2
Details: with dp13b_human APPL2, Q8NEU8

| effect of a mutation on the interaction | Variant |
| --- | --- |
| with no effect | E643Q |
| with no effect | E67G |

Variants of: B3
Details: with ub2e2_human UBE2E2, Q96LR5
Sequence of ub2e2_human UBE2E2, Q96LR5 (Q96LR5 whole entry): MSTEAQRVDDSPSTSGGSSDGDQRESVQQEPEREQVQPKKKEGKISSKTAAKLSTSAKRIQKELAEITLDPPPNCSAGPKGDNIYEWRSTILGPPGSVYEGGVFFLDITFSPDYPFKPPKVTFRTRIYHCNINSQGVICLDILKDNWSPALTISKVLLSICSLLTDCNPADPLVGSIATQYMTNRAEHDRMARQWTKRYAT

| effect of a mutation on the interaction | Variant |
| --- | --- |
| with no effect | F767L |

Variants of: B3
Details: with zch10_human ZCCHC10, Q8TBK6
Sequence of zch10_human ZCCHC10, Q8TBK6 (Q8TBK6 whole entry): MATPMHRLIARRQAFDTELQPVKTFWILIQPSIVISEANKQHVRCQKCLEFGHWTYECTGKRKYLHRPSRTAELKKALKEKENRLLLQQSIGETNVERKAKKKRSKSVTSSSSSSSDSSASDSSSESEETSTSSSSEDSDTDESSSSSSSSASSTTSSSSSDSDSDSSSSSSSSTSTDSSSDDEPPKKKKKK

| effect of a mutation on the interaction | Variant |
| --- | --- |
| with no effect | F767L |

Variants of: B4
Details: with avpi1_human AVPI1, Q5T686

| effect of a mutation on the interaction | Variant |
| --- | --- |
| with no effect | A16T |
| with no effect | S143P |

Variants of: B5
Details: with depp1_human DEPP1, Q9NTK1

| effect of a mutation on the interaction | Variant |
| --- | --- |
| disrupting interaction strength | L12H |

Variants of: B6
Details: with xage3_human XAGE3, Q8WTP9

| effect of a mutation on the interaction | Variant |
| --- | --- |
| with no effect | Y61S |
| with no effect | I147V |
| with no effect | K281Q |

Source: IntAct's records for PubMed 31515488
